In patent US20240376455:

Test system: T1, LPG10159 (Contaminated/multiple)
T1 sequence: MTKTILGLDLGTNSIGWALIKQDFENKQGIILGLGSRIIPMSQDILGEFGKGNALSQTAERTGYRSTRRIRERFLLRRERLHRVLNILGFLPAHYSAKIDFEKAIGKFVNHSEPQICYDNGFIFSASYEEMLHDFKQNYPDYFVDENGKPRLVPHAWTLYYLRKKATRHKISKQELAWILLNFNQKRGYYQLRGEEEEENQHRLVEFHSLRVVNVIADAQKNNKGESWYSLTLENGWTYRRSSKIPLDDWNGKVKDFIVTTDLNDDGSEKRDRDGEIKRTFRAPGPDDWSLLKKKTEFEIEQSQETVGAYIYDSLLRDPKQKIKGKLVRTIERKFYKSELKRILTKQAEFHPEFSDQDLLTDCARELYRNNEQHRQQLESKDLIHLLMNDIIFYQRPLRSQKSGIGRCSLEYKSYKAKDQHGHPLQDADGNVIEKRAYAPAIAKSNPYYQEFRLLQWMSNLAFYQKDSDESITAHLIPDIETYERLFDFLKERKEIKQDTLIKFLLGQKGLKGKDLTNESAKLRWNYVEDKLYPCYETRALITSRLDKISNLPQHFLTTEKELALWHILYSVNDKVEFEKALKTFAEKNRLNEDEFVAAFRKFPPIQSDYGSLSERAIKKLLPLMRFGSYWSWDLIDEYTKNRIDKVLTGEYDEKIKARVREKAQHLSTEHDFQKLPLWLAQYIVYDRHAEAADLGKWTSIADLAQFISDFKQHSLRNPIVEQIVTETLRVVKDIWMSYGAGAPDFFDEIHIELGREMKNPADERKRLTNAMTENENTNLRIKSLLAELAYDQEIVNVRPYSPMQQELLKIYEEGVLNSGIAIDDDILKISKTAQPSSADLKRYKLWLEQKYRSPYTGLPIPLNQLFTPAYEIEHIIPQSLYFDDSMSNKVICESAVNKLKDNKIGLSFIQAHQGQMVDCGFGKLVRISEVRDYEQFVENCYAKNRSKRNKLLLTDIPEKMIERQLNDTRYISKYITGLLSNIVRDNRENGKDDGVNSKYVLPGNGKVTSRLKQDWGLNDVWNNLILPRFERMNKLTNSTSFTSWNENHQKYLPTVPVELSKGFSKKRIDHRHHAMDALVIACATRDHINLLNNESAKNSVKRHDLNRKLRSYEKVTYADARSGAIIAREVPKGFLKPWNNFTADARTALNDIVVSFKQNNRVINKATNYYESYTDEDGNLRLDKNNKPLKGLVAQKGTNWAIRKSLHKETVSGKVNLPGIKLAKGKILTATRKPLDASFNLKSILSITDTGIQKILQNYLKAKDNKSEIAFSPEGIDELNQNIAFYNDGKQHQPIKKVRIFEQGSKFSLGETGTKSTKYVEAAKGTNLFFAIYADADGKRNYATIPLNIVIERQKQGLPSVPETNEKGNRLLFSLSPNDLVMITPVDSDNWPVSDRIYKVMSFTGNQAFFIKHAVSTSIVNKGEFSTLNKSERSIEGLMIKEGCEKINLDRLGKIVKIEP
Assay: cleavage_in_vitro
Details: PAM SEQ ID 83

GUUGUGAAUUGCUUUAAAGAAAGCAAUUCACAAUAAGGAUUAUUCCGUUGUGAAAACAUCUAGCGCCUCGUCUAUCUACGGGGCAUUUU / GATATAGACGTTGTGGCTGTTGTAGTAGAAATTC / GAATTTCTACTACAACAGCCACAACGTCTATATC [LPG10159 sgRNA L2 ; Library 2 target AGAAATTC]
activity (% target strand cleaved): 2.5
